Consider 15 molecules from patent US6413935.

Assay [1] concerns the target HLA-DR1 (DRB1*0101), purified from LG2 cells (human). The experiment in a line: 125I-peptide inhibition, purified class II.
The target of assay [2] is T1, HLA-DR7 (DRB1*0701), purified from PITOUT cells (human).
T1 chain 1: not shown
T1 chain 2: not shown
The experiment in a line: 125I-peptide inhibition, purified class II.

Assay [3] has as its target T2, HLA-DR5 (DRB1*11011), purified from SWEIG cells (human).
T2 chain 1: not shown
T2 chain 2: not shown
The experiment in a line: 125I-peptide inhibition, purified class II.

Assay [4] has as its target T3, HLA-DR4w4 (DRB1*0401), purified from PREISS cells (human).
T3 chain 1: not shown
T3 chain 2: not shown
Description: 125I-peptide inhibition, purified class II.

For assay [5], the target named is T4, HLA-DR5 (DRB1*11011), purified from cell line SWEIG (human).
T4 chain 1: not shown
T4 chain 2: not shown
Description: competition vs 125I-peptide, purified class II MHC.

Assay [6] deals with T5, HLA-DR4w4 (DRB1*0401), purified from cell line PREISS (human).
T5 chain 1: not shown
T5 chain 2: not shown
The experiment in a line: competition vs 125I-peptide, purified class II MHC.

Assay [7] deals with T6, HLA-DR3 (DRB1*0301), purified from cell line MAT (human).
T6 chain 1: not shown
T6 chain 2: not shown
The experiment in a line: competition vs 125I-peptide, purified class II MHC.

For assay [8], the target named is T7, HLA-DRw53 (DRB4*0101), purified from L257.6 transfected fibroblasts (human).
T7 chain 1: not shown
T7 chain 2: not shown
Description: 125I-peptide inhibition, purified class II.

In assay [9] the target is T8, HLA-DR3 (DRB1*0301), purified from MAT cells (human).
T8 chain 1: not shown
T8 chain 2: not shown
Description: 125I-peptide inhibition, purified class II.

For assay [10], the target named is T9, mouse class II IA^b, purified from DB27.4 cells (mouse), P14434.
T9 chain 1: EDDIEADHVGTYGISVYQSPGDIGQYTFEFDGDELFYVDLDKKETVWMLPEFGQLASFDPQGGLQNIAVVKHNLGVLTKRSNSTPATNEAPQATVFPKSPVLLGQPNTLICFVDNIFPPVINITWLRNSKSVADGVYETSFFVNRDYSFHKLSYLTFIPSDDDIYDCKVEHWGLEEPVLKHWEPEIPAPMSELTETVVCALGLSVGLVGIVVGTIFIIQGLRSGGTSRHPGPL
T9 chain 2: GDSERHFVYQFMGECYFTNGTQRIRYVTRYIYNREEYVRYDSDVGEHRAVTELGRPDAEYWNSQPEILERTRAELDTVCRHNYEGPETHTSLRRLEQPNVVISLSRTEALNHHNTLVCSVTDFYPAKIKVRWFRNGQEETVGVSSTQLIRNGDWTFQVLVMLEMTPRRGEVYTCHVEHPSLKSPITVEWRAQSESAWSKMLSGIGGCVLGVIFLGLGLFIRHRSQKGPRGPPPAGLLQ
The experiment in a line: 125I-peptide inhibition, purified class II.

Assay [11] has as its target mouse class II IE^k, purified from CH12 cells (mouse). The experiment in a line: 125I-peptide inhibition, purified class II.

The term IC50 denotes the concentration that gives 50% inhibition. Lower therefore signals inhibition by little substance.

Non-standard residues stand in square brackets, D forms with d. No end group written: not given here. Cha = N[C@@H](CC1CCCCC1)C(=O)O; 14 = not defined here

B1: 906.30 (peptide)
peptide: [dA]A[Cha]AAAATEKAA[dA]-NH2
modifications: N-terminus assumed
SMILES: C[C@H](NC(=O)[C@H](C)NC(=O)[C@H](C)NC(=O)[C@H](CC1CCCCC1)NC(=O)[C@H](C)NC(=O)[C@@H](C)N)C(=O)N[C@@H](C)C(=O)N[C@H](C(=O)N[C@@H](CCC(=O)O)C(=O)N[C@@H](CCCCN)C(=O)N[C@@H](C)C(=O)N[C@@H](C)C(=O)N[C@H](C)C(N)=O)[C@@H](C)O
Consider B1, for which the fold loss of binding reactivity vs 760.57 in assay [1] was 8 fold; in [2], 10 fold; in [3], 10 fold; in assay [4], 7 fold.

For the molecule [dA]K[14]VWANTLKAA[dA]-NH2 (reading uncertain; also: printed as aK(14)VWANTLKAAa-NH2) [peptide 965.032, aK(14)…a-NH2], the IC50 is 2.9 nM in assay [5], 0.7 nM in assay [6] and 849 nM in assay [7].

As for [dA]K[14]VKAWTLKAA[dA]-NH2 (reading uncertain; also: printed as aK(14)VKAWTLKAAa-NH2) [peptide 965.022, aK(14)…a-NH2], the IC50 in assay [5] was determined as 1.1 nM; in assay [6] it was 0.8 nM.

B2: 906.18 (peptide)
peptide: [dA]A[Cha]AAKATLKAA[dA]-NH2
modifications: N-terminus assumed
SMILES: CC(C)C[C@H](NC(=O)[C@@H](NC(=O)[C@H](C)NC(=O)[C@H](CCCCN)NC(=O)[C@H](C)NC(=O)[C@H](C)NC(=O)[C@H](CC1CCCCC1)NC(=O)[C@H](C)NC(=O)[C@@H](C)N)[C@@H](C)O)C(=O)N[C@@H](CCCCN)C(=O)N[C@@H](C)C(=O)N[C@@H](C)C(=O)N[C@H](C)C(N)=O
In assay [1], B2 came in with a fold decrease of binding activity vs 760.57 of 8 fold.

B3: 906.17 (peptide)
peptide: [dA]A[Cha]AFAATLKAA[dA]-NH2
modifications: N-terminus assumed
SMILES: CC(C)C[C@H](NC(=O)[C@@H](NC(=O)[C@H](C)NC(=O)[C@H](C)NC(=O)[C@H](Cc1ccccc1)NC(=O)[C@H](C)NC(=O)[C@H](CC1CCCCC1)NC(=O)[C@H](C)NC(=O)[C@@H](C)N)[C@@H](C)O)C(=O)N[C@@H](CCCCN)C(=O)N[C@@H](C)C(=O)N[C@@H](C)C(=O)N[C@H](C)C(N)=O
Take B3: the fold increase in reactivity vs 760.57 in assay [8] was found to be 100 fold. In assay [9], this molecule came in with a fold increase in binding vs 760.57 of 2 to 4 fold.

In the case of [dA]A[Cha]AAAKTAAAA[dA] [760.50], the IC50 in assay [10] came to 200 nM; in assay [3], 6.1 nM.

Consider [dA]K[14]VKANTLKAA[dA]-NH2 (reading uncertain; also: printed as aK(14)VKANTLKAAa-NH2) [peptide 965.011, aK(14)…a-NH2], for which the IC50 stood at 11.8 nM in [5] and 592 nM in assay [7].

As for [dA]K[14]VWANTLKAA[dA]-NH2 (reading uncertain; also: printed as aK(14)VWANTLKAAa-NH2) [peptide 965.031, aK(14)…a-NH2], the half-maximal inhibitory concentration (IC50) came out at 8.3 nM in [5] and 2.1 nM in [6].

As for AKFVAAWTLKAAA (modifications not checked) [1024.03], the IC50 in [3] stood at 18 nM; in [4], 2 nM; in [11], 3.5 µM.

Take [dA]K[14]VKANTLKAA[dA]-NH2 (reading uncertain; also: printed as aK(14)VKANTLKAAa-NH2) [peptide 965.012, aK(14)…a-NH2]: the IC50 is 2.2 nM in assay [5], 2.1 nM in [6] and 4590 nM in assay [7].

B4: 906.20 (peptide)
peptide: [dA]A[Cha]AAQATLKAA[dA]-NH2
modifications: N-terminus assumed
SMILES: CC(C)C[C@H](NC(=O)[C@@H](NC(=O)[C@H](C)NC(=O)[C@H](CCC(N)=O)NC(=O)[C@H](C)NC(=O)[C@H](C)NC(=O)[C@H](CC1CCCCC1)NC(=O)[C@H](C)NC(=O)[C@@H](C)N)[C@@H](C)O)C(=O)N[C@@H](CCCCN)C(=O)N[C@@H](C)C(=O)N[C@@H](C)C(=O)N[C@H](C)C(N)=O
As to B4, the fold reduction of binding vs 760.57 in assay [2] is 30 fold.

B5: 906.50 (peptide)
peptide: [dA]A[Cha]AAAATLKAF[dA]-NH2
modifications: N-terminus assumed
SMILES: CC(C)C[C@H](NC(=O)[C@@H](NC(=O)[C@H](C)NC(=O)[C@H](C)NC(=O)[C@H](C)NC(=O)[C@H](C)NC(=O)[C@H](CC1CCCCC1)NC(=O)[C@H](C)NC(=O)[C@@H](C)N)[C@@H](C)O)C(=O)N[C@@H](CCCCN)C(=O)N[C@@H](C)C(=O)N[C@@H](Cc1ccccc1)C(=O)N[C@H](C)C(N)=O
For the molecule B5, the fold increase in reactivity vs 760.57 in assay [8] is 40 fold; in [9], 8 fold.

B6: 906.04 (peptide)
peptide: [dA]V[Cha]AAAATLKAA[dA]-NH2
modifications: N-terminus assumed
SMILES: CC(C)C[C@H](NC(=O)[C@@H](NC(=O)[C@H](C)NC(=O)[C@H](C)NC(=O)[C@H](C)NC(=O)[C@H](C)NC(=O)[C@H](CC1CCCCC1)NC(=O)[C@@H](NC(=O)[C@@H](C)N)C(C)C)[C@@H](C)O)C(=O)N[C@@H](CCCCN)C(=O)N[C@@H](C)C(=O)N[C@@H](C)C(=O)N[C@H](C)C(N)=O
With B6, the fold increase in reactivity vs 760.57 is 30 to 100 fold in assay [8] and 3 fold in assay [9].

B7: 906.16 (peptide)
peptide: [dA]A[Cha]AVAATLKAA[dA]-NH2
modifications: N-terminus assumed
SMILES: CC(C)C[C@H](NC(=O)[C@@H](NC(=O)[C@H](C)NC(=O)[C@H](C)NC(=O)[C@@H](NC(=O)[C@H](C)NC(=O)[C@H](CC1CCCCC1)NC(=O)[C@H](C)NC(=O)[C@@H](C)N)C(C)C)[C@@H](C)O)C(=O)N[C@@H](CCCCN)C(=O)N[C@@H](C)C(=O)N[C@@H](C)C(=O)N[C@H](C)C(N)=O
B7 showed a fold increase in reactivity vs 760.57 in assay [8] of 100 fold. The same molecule yielded a fold increase in binding vs 760.57 in assay [9] of 2 to 4 fold.

For [dA]A[Cha]AAEATLKAA[dA]-NH2 [906.19], the IC50 in [9] worked out at 1500 nM.
